Data taken from US20170218075A1 (HONG KONG UNIVERSITY OF SCIENCE AND TECHNOLOGY, published 2017).

Columns and labels:
[1] = biological target: T1, extracellular domain of mouse EphA4 recombinant protein (mouse, UniProt Q03137 20-547); test: competitive ELISA, mouse EphA4 ECD coated; competitor biotinylated ephrin-B2 Fc; ligand Ephrin-B2
T1 construct: also called mouse EphA4 extracellular domain
Protocol: (§1) Extracellular domain of mouse EphA4 recombinant protein or extracellular domain of mouse EphB2 recombinant protein was first incubated with IgG1 m105, followed by incubating with different biotinylated recombinant mouse ephrin-A/ephrin-B Fc chimeric proteins. The effect of IgG1 m105 on the interaction of EphA4/EphB2 and ephrin-A/ephrin-B was then determined via the streptavidin-biotin detection method.
(§2) The EphA4 proteins were coated on a 96-well plate (Costar) at 50 ng/well in PBS overnight at 4° C. For phage ELISA, phages from each round of panning (polyclonal phage ELISA) or clones randomly picked from the infected TG 1 cells (monoclonal phage ELISA) were incubated with immobilized antigen. Bound phages were detected with anti-M13-HRP polyclonal Ab (Pharmacia, Piscataway, N.J.). For the soluble Fab binding assay, HRP-conjugated mouse anti-FLAG tag Ab (Sigma-Aldrich) was used to detect Fab binding. For the IgG1 binding assay, HRP-conjugated anti-Fab Ab (Sigma-Aldrich) was used for detection. For competitive ELISA assay, extracellular domain of mouse EphA4 recombinant protein or extracellular domain of mouse EphB2 recombinant protein was pre-coated on the ELISA plate and then incubated with different IgG1s for 1 hr at room temperature. […] The interaction of EphA4/EphB2 and ephrin-A/ephrin-B was determined via the streptavidin-biotin detection method.

[2] = biological target: T2, GST-human EphA4 ligand binding domain (LBD) (human, UniProt P54764 29-209); test: isothermal titration calorimetry, 20 µM LBD protein and 1 µM antibody
T2 construct: also called EphA4 LBD; EphA4 LBD recombinant protein; not shown: glutathione S-transferase (GST) tag
Protocol: FIG. 5. […] Isothermal titration calorimetry (ITC) experiments were carried out by incubating 20 μM Eph LBD protein in the cell with 1 μM antibodies.
To investigate the binding property of the IgG1s m101, m105, and m119 to EphA4, GST-human EphA4 ligand binding domain (LBD) was expressed and purified. The recognition of EphA4 LBD by the 3 IgG1s m101, m105, and m119 was determined by Western blot analysis. The EphA4 LBD protein was run on SDS-PAGE and they were immunoblotted with the 3 IgG1s (FIG. 4). The kinetics of the 3 IgG1s and EphA4 LBD interaction were further analyzed by conducting isothermal titration calorimetry (ITC) experiments. The heat generated by the interaction of EphA4 LBD recombinant protein with the IgG1s was measured with a sensitive calorimeter.

[3] = biological target: EphA4 in cultured hippocampal neurons (rat, UniProt D3ZZK3 20-986); test: cell-based or functional assay
[4] = biological target: T3, human EphA4 fused with IgG1 Fc and Avi-tag (EphA4-Fc) (human, UniProt P54764 20-547); test: ELISA, EphA4 coated, IgG1 detected with anti-Fab-HRP
T3 construct: also called human EphA4-Fc; not shown: human IgG1 Fc; Avi-tag
Protocol: (§3) FIG. 3. Binding of IgG1s m101, m105, and m119 to mouse and human EphA4 measured by ELISA. Serially diluted IgG1s were added to EphA4-coated wells. HRP-conjugated anti-Fab Ab was used for detection.
(§4) The EphA4 proteins were coated on a 96-well plate (Costar) at 50 ng/well in PBS overnight at 4° C. For phage ELISA, phages from each round of panning (polyclonal phage ELISA) or clones randomly picked from the infected TG 1 cells (monoclonal phage ELISA) were incubated with immobilized antigen. Bound phages were detected with anti-M13-HRP polyclonal Ab (Pharmacia, Piscataway, N.J.). For the soluble Fab binding assay, HRP-conjugated mouse anti-FLAG tag Ab (Sigma-Aldrich) was used to detect Fab binding. For the IgG1 binding assay, HRP-conjugated anti-Fab Ab (Sigma-Aldrich) was used for detection. For competitive ELISA assay, extracellular domain of mouse EphA4 recombinant protein or extracellular domain of mouse EphB2 recombinant protein was pre-coated on the ELISA plate and then incubated with different IgG1s for 1 hr at room temperature. After several washes with DPBS, the EphA4 or EphB2 proteins were then incubated with different biotinylated recombinant mouse ephrin-A/ephrin-B Fc chimera proteins for 1 hr at room temperature. The interaction of EphA4/EphB2 and ephrin-A/ephrin-B was determined via the streptavidin-biotin detection method.

[5] = biological target: T4, extracellular domain of mouse EphB2 recombinant protein (mouse, UniProt P54763 19-543); test: competitive ELISA: mouse EphB2 extracellular domain coated, incubated with IgG1 m105, then biotinylated mouse ephrin-B2 Fc; streptavidin-biotin detection, % of inhibition
T4 construct: extracellular domain; also called EphB2 receptor
T4 sequence (looked up): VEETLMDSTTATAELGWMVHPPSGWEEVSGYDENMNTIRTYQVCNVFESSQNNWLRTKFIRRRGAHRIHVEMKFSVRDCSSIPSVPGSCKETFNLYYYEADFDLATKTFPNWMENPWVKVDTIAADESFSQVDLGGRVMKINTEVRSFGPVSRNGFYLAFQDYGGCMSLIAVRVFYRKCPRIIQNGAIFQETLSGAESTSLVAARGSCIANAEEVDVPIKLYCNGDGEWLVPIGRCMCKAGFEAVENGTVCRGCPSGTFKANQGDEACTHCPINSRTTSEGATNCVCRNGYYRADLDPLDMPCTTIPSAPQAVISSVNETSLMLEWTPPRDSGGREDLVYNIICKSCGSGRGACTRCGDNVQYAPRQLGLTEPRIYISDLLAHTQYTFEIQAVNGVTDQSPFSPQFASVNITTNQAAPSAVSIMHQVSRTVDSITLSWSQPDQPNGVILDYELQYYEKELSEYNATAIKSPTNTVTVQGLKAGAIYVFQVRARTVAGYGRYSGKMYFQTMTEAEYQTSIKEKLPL
Protocol: as §1, §2

[6] = biological target: T1, extracellular domain of mouse EphA4 …; test: competitive ELISA, mouse EphA4 ECD coated; competitor biotinylated mouse ephrin-A1 Fc
Protocol: The interaction of EphA4 and ephrin-A that attenuated by the IgG1s was determined via the streptavidin-biotin detection method. IC50 of the 3 IgG1s were determined.
as §4

[7] = biological target: T1, extracellular domain of mouse EphA4 …; test: competitive ELISA, mouse EphA4 ECD coated; competitor biotinylated mouse ephrin-A5 Fc; ligand mEphrin-A5
Protocol: as §1, §2

[8] = biological target: T1, extracellular domain of mouse EphA4 …; test: competitive ELISA: mouse EphA4 extracellular domain coated, incubated with IgG1 m105, then biotinylated mouse ephrin-B2 Fc; streptavidin-biotin detection, % of inhibition
Protocol: as §1, §2

[9] = biological target: T1, extracellular domain of mouse EphA4 …; test: competitive ELISA, mouse EphA4 ECD coated; competitor biotinylated mouse ephrin-A1 Fc; ligand mEphrin-A1
Protocol: as §1, §2

[10] = biological target: T3, human EphA4 fused with IgG1 Fc and …; test: ELISA, EphA4 coated, Fab detected with anti-FLAG-HRP; human EphA4; Fab, not IgG1
Protocol: FIG. 2. Binding of IgG1s E1 (m101), E2, E5 (m105), and E19 (m119) to mouse and human EphA4 measured by ELISA. Serially diluted IgG1s were added to EphA4-coated wells. HRP-conjugated anti-FLAG Ab was used for detection.
as §4

[11] = biological target: T3, human EphA4 fused with IgG1 Fc and …; test: ELISA, EphA4 coated, IgG1 detected with anti-Fab-HRP; human EphA4; IgG1 format
Protocol: as §3, §4

T3 sequence (P54764 20-547 limits assumed): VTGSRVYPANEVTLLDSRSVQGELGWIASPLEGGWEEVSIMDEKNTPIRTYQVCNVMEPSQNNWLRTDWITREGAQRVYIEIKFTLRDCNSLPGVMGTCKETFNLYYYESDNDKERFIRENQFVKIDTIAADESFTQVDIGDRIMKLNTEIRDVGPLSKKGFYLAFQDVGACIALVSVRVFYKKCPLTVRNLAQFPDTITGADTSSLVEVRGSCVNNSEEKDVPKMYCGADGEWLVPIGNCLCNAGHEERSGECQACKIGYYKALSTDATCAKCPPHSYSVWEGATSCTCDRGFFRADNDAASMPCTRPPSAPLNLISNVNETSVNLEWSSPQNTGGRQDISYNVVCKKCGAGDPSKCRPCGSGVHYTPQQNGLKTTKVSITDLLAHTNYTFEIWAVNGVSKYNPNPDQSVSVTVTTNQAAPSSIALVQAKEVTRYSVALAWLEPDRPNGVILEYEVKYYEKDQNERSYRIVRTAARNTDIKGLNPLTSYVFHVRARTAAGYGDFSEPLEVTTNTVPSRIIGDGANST
T1 sequence (Q03137 20-547 limits assumed): as the sequence (P54764 20-547 limits assumed) above, with P59A, N121S, V124G, R250Q, S251N, T270S, K378R, N406S counted along it
T2 sequence (P54764 29-209): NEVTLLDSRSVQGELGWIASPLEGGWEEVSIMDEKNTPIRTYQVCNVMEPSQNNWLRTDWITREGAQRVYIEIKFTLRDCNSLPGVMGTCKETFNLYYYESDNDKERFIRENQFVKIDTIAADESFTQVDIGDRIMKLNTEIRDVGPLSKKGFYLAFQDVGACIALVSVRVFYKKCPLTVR

B1: IgG1 m105 (antibody, V domains shown)
VH: EVQLVQSGAEVKKPGSSVKVSCKASGGTFSSYAISWVRQAPGQGLEWMGGIIPIFGTANYAQKFQGRVTMTRDTSISTAYMELSRLRSDDTAVYYCARELLYCSSTSCGTHGFDIWGQGTMVTVSS
VL: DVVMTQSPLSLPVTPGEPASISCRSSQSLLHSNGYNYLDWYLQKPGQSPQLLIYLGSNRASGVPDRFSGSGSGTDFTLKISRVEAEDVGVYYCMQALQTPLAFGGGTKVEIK
notes: Fully human IgG1 made from Fab E5 (pDR12 vector); also called E5; 105L
Question: What does the source list for B1?
Answer: IC50 [1]: 1.81 nM; Kd [2]: ~8.6 nM; IC50 of inhibition of ephrin-A1 mediated EphA4 clusters [3]: 4.16 µg/mL; EC50 [4]: < 1 nM; binding result [5]: no binding (tested: 1000 nM (Log [nM] = 3)); IC50 [6]: 0.35 nM; IC50 [7]: 22.7 nM; IC50 [8]: 0.78 nM; IC50 [9]: 0.34 nM

B2: Fab E5 (m105) (Fab, V domains shown)
VH: EVQLVQSGAEVKKPGSSVKVSCKASGGTFSSYAISWVRQAPGQGLEWMGGIIPIFGTANYAQKFQGRVTMTRDTSISTAYMELSRLRSDDTAVYYCARELLYCSSTSCGTHGFDIWGQGTMVTVSS
VL: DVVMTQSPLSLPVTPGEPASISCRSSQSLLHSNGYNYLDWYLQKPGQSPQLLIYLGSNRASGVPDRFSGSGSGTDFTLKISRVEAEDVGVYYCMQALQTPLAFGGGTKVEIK
notes: Soluble Fab, detected with anti-FLAG antibody; also called clone E5; Fab m105
Question: Which EC50 [10] does the source give for B2 here?
Answer: 2 nM

B3: IgG1 m101 (antibody, V domains shown)
VH: QVQLQQSGAEVKKPGSSVKVSCKASGYTFTGYYMHWVRQAPGQGLEWMGGIIPIFGTANYAQKFQGRVTITADKSTSTAYMELSSLRSEDTAVYYCATAPMVCSSTSCYLRGFDYWGQGTLVTVSS
VL: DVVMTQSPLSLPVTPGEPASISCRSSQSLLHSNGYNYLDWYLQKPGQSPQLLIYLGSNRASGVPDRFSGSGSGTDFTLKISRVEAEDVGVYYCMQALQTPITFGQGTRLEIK
notes: Fully human IgG1 made from Fab E1 by re-cloning into the pDR12 vector; also called E1; IgG1 E1
Question: How did the Kd [2] turn out when B3 was run?
Answer: ~83 nM

Question: And the EC50 [11]?
Answer: 1 nM

Question: What about the IC50 [6] of the same binder?
Answer: 0.71 nM

B4: Fab E1 (m101) (Fab, V domains shown)
VH: QVQLQQSGAEVKKPGSSVKVSCKASGYTFTGYYMHWVRQAPGQGLEWMGGIIPIFGTANYAQKFQGRVTITADKSTSTAYMELSSLRSEDTAVYYCATAPMVCSSTSCYLRGFDYWGQGTLVTVSS
VL: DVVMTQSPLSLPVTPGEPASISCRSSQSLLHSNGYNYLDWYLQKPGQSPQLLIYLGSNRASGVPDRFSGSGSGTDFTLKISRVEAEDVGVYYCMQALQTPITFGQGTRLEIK
notes: Soluble Fab from the phage library, detected with anti-FLAG antibody (FLAG tag); also called clone E1; Fab m101
Question: How did the EC50 [10] turn out when B4 was run?
Answer: 5 nM
